# US20080027006A1
# Read-outs that look alike come from different tables or passages of the source.
# B1: HR-N2 (916-973) (peptide)
# peptide: IQESLTTTSTALGKLQDVVNQNAQALNTLVKQLSSNFGAISSVLNDILSRLDKVEAEV
# modifications: not checked
# Legend:
# [1] = target: HR-C1 (1147-1185) (SARS coronavirus (Urbani strain))
# [2] = target: HR-C1 (1147-1185) (SARS coronavirus (Urbani strain)); test: CD thermal denaturation of the mixture at 222 nm
# [3] = target: HR-C2 (1165-1185) (SARS coronavirus (Urbani strain))
# [4] = target: HR-C3 (1158-1185) (SARS coronavirus (Urbani strain))
# [5] = target: HR-C4 (1151-1185) (SARS coronavirus (Urbani strain))
# [6] = target: HR-C1 (1147-1185) (SARS coronavirus (Urbani strain)); test: SEC of equimolar mixture (Superdex 75)
# [7] = target: HR-C1 (1147-1185) (SARS coronavirus (Urbani strain)); test: CD at 222 nm of the peptide mixture, 22 °C, 0.05 M K2PO4 buffer
Binder,[θ]222 observed (degrees·cm^2·dmol^-1) [1],T1/2 of the complex [1] [°C],other results
TSTALGKLQDVVNQNAQALNTLVKQLSSNFGAISS (modifications not checked) [HR-N11 (923-957)],-8000,–,–
QNVLYENQKQIANQFNKAISQIQESLTTTSTALGK (modifications not checked) [HR-N7 (895-929)],-7400,–,–
FNGIGVTQNVLYENQKQIANQFNKAISQIQESLTT (modifications not checked) [HR-N6 (888-922)],-8600,–,–
QKQIANQFNKAISQIQESLTTTSTALGKLQDVVNQ (modifications not checked) [HR-N8 (902-936)],-7900,–,–
IQESLTTTSTALGKLQDVVNQNAQALNTLVKQLSS (modifications not checked) [HR-N10 (916-950)],-17700,57,increase of T1/2 from HR-C1 [2]: 24 °C; [θ]222 observed (degrees·cm^2·dmol^-1) [3]: -3800; [θ]222 observed (degrees·cm^2·dmol^-1) [4]: -4900; T1/2 of the complex [5]: 56 °C; [θ]222 observed (degrees·cm^2·dmol^-1) [5]: -17900
FNKAISQIQESLTTTSTALGKLQDVVNQNAQALNT (modifications not checked) [HR-N9 (909-943)],-10800,36,"rise of T1/2 relative to HR-C1 alone [2]: 3 °C; higher molecular weight complex, percent of observed SEC area units [6]: 30%"
B1,-17900,74,rise of T1/2 relative to HR-N2 alone [2]: 6 °C
MQMAYRFNGIGVTQNVLYENQKQIANQFNKAISQI (modifications not checked) [HR-N5 (882-916)],–,–,[θ]222 observed (degrees·cm^2·dmol^-1) [7]: -8500
